# B1: OSM: IL-6 family cytokine oncostatin M (protein, UniProt P13725 26-221, looked up)
# Oncostatin-M: AAIGSCSKEYRVLLGQLQKQTDLMQDTSRLLDPYIRIQGLDVPKLREHCRERPGAFPSEETLRGLGRRGFLQTLNATLGCVLHRLADLEQRLPKAQDLERSGLNIEDLEKLQMARPNILGLRNNIYCMAQLLDNSDTAEPTKAGRGASQPPTPTPASDAFQRKLEGCRFLHGYHRFMHSVGRVFSKWGESPNRSRR
# B2: GDF5: BMPR1B ligand (protein, UniProt P43026 382-501, looked up)
# Growth/differentiation factor …: APLATRQGKRPSKNLKARCSRKALHVNFKDMGWDDWIIAPLEYEAFHCEGLCEFPLRSHLEPTNHAVIQTLMNSMDPESTPPTCCVPTRLSPISILFIDSANNVVYKQYEDMVVESCGCR
# B3: sLIFR: soluble LIFR, which binds and sequesters LIF (protein, UniProt P42702 45-833, looked up)
# extracellular domain: QKKGAPHDLKCVTNNLQVWNCSWKAPSGTGRGTDYEVCIENRSRSCYQLEKTSIKIPALSHGDYEITINSLHDFGSSTSKFTLNEQNVSLIPDTPEILNLSADFSTSTLYLKWNDRGSVFPHRSNVIWEIKVLRKESMELVKLVTHNTTLNGKDTLHHWSWASDMPLECAIHFVEIRCYIDNLHFSGLEEWSDWSPVKNISWIPDSQTKVFPQDKVILVGSDITFCCVSQEKVLSALIGHTNCPLIHLDGENVAIKIRNISVSASSGTNVVFTTEDNIFGTVIFAGYPPDTPQQLNCETHDLKEIICSWNPGRVTALVGPRATSYTLVESFSGKYVRLKRAEAPTNESYQLLFQMLPNQEIYNFTLNAHNPLGRSQSTILVNITEKVYPHTPTSFKVKDINSTAVKLSWHLPGNFAKINFLCEIEIKKSNSVQEQRNVTIKGVENSSYLVALDKLNPYTLYTFRIRCSTETFWKWSKWSNKKQHLTTEASPSKGPDTWREWSSDGKNLIIYWKPLPINEANGKILSYNVSCSSDEETQSLSEIPDPQHKAEIRLDKNDYIISVVAKNSVGSSPPSKIASMEIPNDDLKIEQVVGMGKGILLTWHYDPNMTCDYVIKWCNSSRSEPCLMDWRKVPSNSTETVIESDEFRPGIRYNFFLYGCRNQGYQLLRSMIGYIEELAPIVAPNFTVEDTSADSILVKWEDIPVEELRGFLRGYLFYFGKGERDTSKMRVLESGRSDIKVKNITDISQKTLRIADLQGKTSYHLVLRAYTDGGVGPEKSMYVVTKENS
# modifications: extracellular domain
# B4: IL-la: inflammatory cytokine (protein, UniProt P01583 113-271, looked up)
# Interleukin-1 alpha: SAPFSFLSNVKYNFMRIIKYEFILNDALNQSIIRANDQYLTAAALHNLDEAVKFDMGAYKSSKDDAKITVILRISKTQLYVTAQDEDQPVLLKEMPEIPKTITGSETNLLFFWETHGTKNYFTSVAHPNLFIATKQDYWVCLAGGPPSITDFQILENQA
# B5: BMP4: driver of chondrocyte hypertrophy (protein, UniProt P12644 293-408, looked up)
# Bone morphogenetic protein 4: SPKHHSQRARKKNKNCRRHSLYVDFSDVGWNDWIVAPPGYQAFYCHGDCPFPLADHLNSTNHAIVQTLVNSVNSSIPKACCVPTELSAISMLYLDEYDKVVLKNYQEMVVEGCGCR
# What was measured:
# pSTAT3 and MYC [1] = assay: Western blot of pSTAT3 and MYC in adult pig articular chondrocytes; assay type: cell-based; settings: adult pig articular chondrocytes; for ability of both LIF and RCGD 423 to induce increases in pSTAT3 and MYC: inhibitor plus LIF or RCGD 423; for levels of MYC / levels of pSTAT3: treated vs untreated, relative to histone H3
# Source text: Only early passages of chondrocytes (passage 0-2) were used for experimentation to avoid de-differentiation and loss of cartilage phenotype (Wu et al., 2014). Cartilage explants were made using 1, 2 or 8 mm biopsy punch and wet weight of each explant determined prior to experimentation. For cell isolation cartilage tissue was digested as described previously (Wu et al., 2015). Postnatal paraffin embedded joint and growth plate specimens were kindly donated by Dr Marcel Karperien from the University of Twente (Netherlands) and Dr Nick Bernthal from University of California Los Angeles. All donated material was anonymous and carried no personal identifiers. Cell culture reagents were purchased from Life Technologies, Inc. (Grand Island, N.Y.). Growth factors LIF, OSM, IL-6, TNF-α, IL-1β were purchased from Life Technologies, Inc (Grand Island, N.Y.). STATTIC, 10058-F4, SCl44 hydrochloride, and CP-690550 were purchased from Sigma Aldrich (St. Louis, Mo.). RCGD 423 (N-(4-Bromophenyl)-4-phenyl-1,3-thiazol-2-amine) was synthesized and provided by MolPort (Riga, Latvia). Fetal, adult and pig chondrocytes were cultured in DMEM F12 medium containing 10% (vol/vol) fetal bovine serum and 1% Penicillin-Streptomycin (vol/vol) at 37° C. in a humidified atmosphere of 95% aid and 5% CO2. Media was replenished with DMEM F12 medium containing 1% (vol/vol) fetal bovine serum and 1% Penicillin-Streptomycin (vol/vol) once treatments were added. For 3-dimensional (3D) cell cultures adult human articular chondrocytes were incubated with or without RCGD 423 using 10% solution of Mebiol® hydrogel from Cosmo Bio (Carlsbad, Calif.) in X-vivo 15 serum free medium from Lonza (Walkersville, Md.) as described previously (Wu et al., 2014).
# (§1) Treated and non-treated ells were lysed in RIPA Lysis and Extraction Buffer (Pierce, Rockford, Ill.) containing protease inhibitors (Pierce) followed by sonication with a 15-second pulse at a power output of 2 using the VirSonic 100 (SP Industries Company, Warminster, Pa.). Protein concentrations were determined by BCA protein assay (Pierce). Proteins were resolved with SDS-PAGE utilizing 4-15% Mini-PROTEAN TGX Precast Gels and transferred to Trans-Blot Turbo Transfer Packs with a 0.2-μm pore-size nitrocellulose membrane. The SDS-PAGE running buffer, 4-15% Mini-PROTEAN TGX Precast Gels, Trans-Blot Turbo Transfer Packs with a 0.2-μm pore-size nitrocellulose membrane were purchased from Biorad (Hercules, Calif.). Nitrocellulose membranes were blocked in 5% nonfat milk in 0.05% (v/v) Tween 20 (PBST) (Corning, Manassas, Va.). Membranes were then incubated with primary antibodies phospho-STAT3 (#9131), MYC (#5605), NF-κB p65 (#D14E12), pAKT (#9272) Histone 3 (#9715) from Cell Signaling, (Danvers, Mass.); MEK1/2 (ab70613) and p38 (ab795) from Abcam (Cambridge, Mass.) overnight. After washing in PBS containing 0.05% (v/v) Tween 20 (PBST), membranes were incubated with Goat anti-Rabbit IgG (H+L) Secondary Antibody (Thermo Scientific Rockford, Ill.). After washing, membranes were developed with the Clarity Western ECL Blotting Substrate (Hercules, Calif.).
# cartilage explants = assay: Cartilage explant culture: tissue expansion, COL2 and GAG content; assay type: cell-based, pig; settings: cartilage explants/plugs in culture
# Source text: The same stimulatory effect was achieved after treatment of explants with CRMs identified in our small molecule screen. […] This can test if activation of p-STAT3 and c-MYC by selected small molecules CRM-398 and -423 can result in in situ expansion of articular cartilage tissue.
# Mature articular cartilage is comprised of chondrocytes contained within lacunae surrounded by dense extracellular matrix. In order for a regenerative response to occur, proliferation, survival and migration must all proceed in concert. […] We designed two sets of experiments to assess the ability of RCGD 423 to operate in this capacity. First, RCGD 423 or cytokines implicated in the growth and differentiation of articular cartilage were incubated with small plugs of cartilage tissue; after 5 weeks, the amount of COL2 and glycosaminoglycans (GAGs) were determined.
# Cartilage explants were washed with PBS and then directly digested or stored at […]. For digestion, explants were transferred in digestion buffer composed of 1 mg/mL proteinase K in Tris/Ethylene diamine tetra-acetic acid (EDTA) buffer (pH 7.6) containing 18.5 μg/mL iodoacetamide and 1 μg/mL pepstatin A) for 16-72 h at 56° C. After complete digestion the GAG content was spectrophotometrically determined with 1,9-dimethylmethylene blue chloride staining in the phosphate buffer with ethylene diamine tetra-acetic acid buffer (14.2 g/L Na2HPO4 and 3.72 g/L Na2EDTA, pH 6.5) using an Infinite M1000 Pro microplate reader (Tecan) at an absorbance of 520 nm with chondroitin sulfate as a standard. Amount of total DNA in explants was determined by a CyQuant DNA Kit (Molecular Probes by Life Technology) using Qubit 1.0 fluorometer (Invitrogen).
# Cultured explants were first digested in testicular hyaluronidase (0.05% in 50 mM HEPES) for 2 hours at 37° C. 0.5M glacial acetic acid was added to digestion solution to maximize the collagen swelling and provide best pepsin access. Pepsin (250 μg/ml) was then used to further digest the pellets in combination with rotation and occasional gentle vortexing at 4° C. for 18-24 hours. Cold tris base and NaOH were added to the digestion solution to neutralize the acetic acid. Digestion solution was vigorously vortexed immediately, and subsequently rotated at 4° C. overnight to maximize collagen solubility. Tubes were centrifuged to separate undigested tissue and supernatant. Any undigested tissue was subjected to the digestion process again. All supernatants were combined for ELISA. Concentration of collagen II in the supernatant was measured by Type I/II Collagen Detection Kit (Chondrex, Inc, Redmond, Wash.), according to manufacturer's instruction and normalized either to DNA content or wet weight of the explants determined prior to experimentation.
# [2] = test system: MAPK, AKT, NF-κB pathways; assay: Western blot of MAPK, AKT and NF-κB signaling in adult pig articular chondrocytes; assay type: cell-based; settings: 24 hours
# Experimental: FIGS. 30A-30B. […] (FIG. 30A) Adult pig articular chondrocytes were cultured for 24 hours with the indicated cytokines or RCGD 423 and the levels of pSTAT3 and MYC were measured with respect to histone H3. Representative data for other proteins in the MAPK (p38 and MEK1/2), AKT (phospho-AKT; pAKT) or NF-KB (NF-KB p65) are also shown. (FIG. 30B) Levels of transcription of genes indicative of a catabolic response were determined via quantitative PCR in adult pig articular chondrocytes treated with OSM, IL-6, TNF-α, LIF or RCGD 423. Data are represented at mean±SD.
# Cartilage degeneration is generally considered a feed-forward process, in which small losses of chondrocytes result in microenvironmental changes including induction of an inflammatory response and other pro-catabolic events (Hunziker, 2002). In turn, these alterations in the joint milieu promote production of matrix degrading proteins including MMPs (collagenases) and proteins of the ADAMTS family (aggrecanases). LIF has been implicated in promoting this cycle of matrix destruction during the pathogenesis of osteoarthritis (Hui et al., 2000; Lotz et al., 1992), although its role in this process has been controversial. In order to better understand the mechanism of action of LIF, RCGD 423 and known pro-inflammatory cytokines in the promotion of degeneration, we stimulated adult pig articular chondrocytes with these molecules and quantitated the levels of activated downstream proteins that mediate the cellular signaling response (FIG. 30A).
# as §1
# pSTAT3 and MYC [3] = assay: Western blot of pSTAT3 and MYC in human fetal articular chondrocytes; assay type: cell-based; settings: 72 hours
# Source text: Moreover, LIFR expression is localized to chondrocytes in the superficial zone of articular cartilage throughout ontogeny. In contrast, LIF expression is strongest during fetal development and then diminishes over time (Table S1). […] LIF signals through a heterodimeric receptor comprised of LIFR and gp130 (IL6RST); upon binding extracellular ligand, both receptors are phosphorylated and recruit members of the JAK family which in turn phosphorylate STAT3 (pSTAT3). pSTAT3 then enters the nucleus to act as a transcriptional regulator. […] We first performed ELISA on human fetal and adult synovial fluid to determine if LIF protein levels change over time. […] Western blot analysis of the downstream effectors of LIF signaling, pSTAT3 and MYC, further supported reduced levels of LIF signaling in adult articular cartilage (FIG. 26A). We then confirmed that adolescent and adult articular chondrocytes in the superficial zone express both receptors required for LIF signaling (FIG. 33) and that these cells are the most anabolic of adult chondrocytes (FIGS. 34A-34B). Because STAT3 and MYC can respond to a variety of stimuli, we next wanted to determine if the increased levels of pSTAT3 and MYC in fetal cells were a direct result of increased LIF/LIFR signaling.
# as §1
molecule,measurement,setting,value
"Cl.O=C(NNc1nc2cc(F)ccc2n2cccc12)c1cnccn1 [gp130 inhibitor, reference compound]",ability of both LIF and RCGD 423 to induce increases in pSTAT3 and MYC,pSTAT3 and MYC [1],greatly reduced
"C[C@@H]1CCN(C(=O)CC#N)C[C@@H]1N(C)c1ncnc2[nH]ccc12 [JAK inhibitor, reference compound]",ability of both LIF and RCGD 423 to induce increases in pSTAT3 and MYC,pSTAT3 and MYC [1],greatly reduced
TGF-beta 1: morphogen,expansion of cartilage tissue in explants,cartilage explants,little or no effect
B1,levels of MYC,pSTAT3 and MYC [1],does not elicit any upregulation
same,levels of pSTAT3,pSTAT3 and MYC [1],does not elicit any upregulation
same,pro-inflammatory response,[2],strong pro-inflammatory response
B2,expansion of cartilage tissue in explants,cartilage explants,little or no effect
B3,levels of MYC,pSTAT3 and MYC [3],substantially reduced
same,levels of pSTAT3,pSTAT3 and MYC [3],substantially reduced
same,levels of MYC,pSTAT3 and MYC [3]; listed as LIFR,reduces
same,levels of pSTAT3,pSTAT3 and MYC [3]; listed as LIFR,reduces
same,levels of MYC,pSTAT3 and MYC [3]; listed as soluble LIF receptor,reduces
same,levels of pSTAT3,pSTAT3 and MYC [3]; listed as soluble LIF receptor,reduces
B4,levels of MYC,pSTAT3 and MYC [1],inhibit accumulation
same,levels of pSTAT3,pSTAT3 and MYC [1],inhibit accumulation
B5,expansion of cartilage tissue in explants,cartilage explants,little or no effect

# Reference: patent publication US11072592B2, “Small molecules that enable cartilage rejuvenation” (The Regents of the University of California, priority 2015, dated 2021)
